This note sets out measurements from US20050260216A1 (published 2005).

Assay [1] deals with human type-2 IL-4 receptor (on A549 cells) (human) (UniProt P24394). Put plainly: cell-based or functional assay.
The target of assay [2] is T1, human type-2 IL-4 receptor (on A549 cells) (human, UniProt P24394 26-825; P78552 22-427).
T1 sequence (looked up) 1: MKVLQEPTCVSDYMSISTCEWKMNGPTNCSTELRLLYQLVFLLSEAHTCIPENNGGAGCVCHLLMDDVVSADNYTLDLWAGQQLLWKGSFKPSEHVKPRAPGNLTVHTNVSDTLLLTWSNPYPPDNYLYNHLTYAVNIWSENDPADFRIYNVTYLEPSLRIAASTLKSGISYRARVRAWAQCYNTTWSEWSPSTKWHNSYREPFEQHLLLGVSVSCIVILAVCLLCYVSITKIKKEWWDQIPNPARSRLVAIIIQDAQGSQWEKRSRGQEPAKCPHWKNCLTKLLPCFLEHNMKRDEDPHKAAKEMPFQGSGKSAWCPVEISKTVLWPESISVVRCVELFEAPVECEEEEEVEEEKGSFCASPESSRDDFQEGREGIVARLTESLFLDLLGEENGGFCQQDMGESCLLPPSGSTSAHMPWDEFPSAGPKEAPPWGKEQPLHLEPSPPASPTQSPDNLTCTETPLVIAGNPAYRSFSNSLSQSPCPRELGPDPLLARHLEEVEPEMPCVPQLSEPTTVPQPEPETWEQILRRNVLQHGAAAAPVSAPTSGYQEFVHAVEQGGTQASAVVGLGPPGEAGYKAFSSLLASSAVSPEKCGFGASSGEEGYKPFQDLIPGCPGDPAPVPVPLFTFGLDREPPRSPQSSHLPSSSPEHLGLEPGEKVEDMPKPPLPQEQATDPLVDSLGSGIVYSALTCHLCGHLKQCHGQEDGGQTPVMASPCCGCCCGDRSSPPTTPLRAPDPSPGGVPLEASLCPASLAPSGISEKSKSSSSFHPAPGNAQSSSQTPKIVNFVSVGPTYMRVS
T1 sequence (looked up) 2: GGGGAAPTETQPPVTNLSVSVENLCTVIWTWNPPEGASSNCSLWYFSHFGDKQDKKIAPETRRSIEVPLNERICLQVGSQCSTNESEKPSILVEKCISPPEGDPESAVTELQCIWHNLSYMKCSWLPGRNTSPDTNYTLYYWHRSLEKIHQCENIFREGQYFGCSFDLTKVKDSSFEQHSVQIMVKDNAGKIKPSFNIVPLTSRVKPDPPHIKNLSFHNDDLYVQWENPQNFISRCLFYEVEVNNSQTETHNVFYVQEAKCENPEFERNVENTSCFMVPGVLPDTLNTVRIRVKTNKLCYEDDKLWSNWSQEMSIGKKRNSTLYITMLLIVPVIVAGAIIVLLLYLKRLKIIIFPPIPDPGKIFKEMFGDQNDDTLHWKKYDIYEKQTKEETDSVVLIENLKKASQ
Briefly: cell-based or functional assay.

“recombinant mouse IL-13 (catalogue number 413-ML-025, R&D Systems) (from UniProt P20109 26-131) (ligand)” returned a phosphorylation of STAT6 in A549 cells (Western blot); lowest active concentration tested in assay [1] of 10 ng/mL.

B1: chimaeric IL-13 (free cIL-13 generated from GST-cIL-13 by thrombin cleavage) (ligand)
chain: GPVPRSVSLPLTLRELIEELVNITQDQTPLCNGSMVWSVDLAAGGYCAALESLTNISNCNAIEKTQRMLGGLCNRKAPTTVSSLPDTKIEVAQFVKDLLSYTKQLFRHGPF
As for B1, the “bioactivity relative to mIL-13 (STAT6 phosphorylation in A549 cells)” value in assay [2] was about 5 fold less than mIL-13.
